14 molecules from paper PMC1402309, “Selection, affinity maturation, and characterization of a human scFv antibody against CEA protein” (BMC Cancer, 2006) can be followed below.

Where two headings read alike, the source gives them in different places.

Assay [1] addresses T1, carcinoembryonic antigen (CEA), human purified protein (Sigma) (Homo sapiens, UniProt P06731, biotin (biotinamidohexanoic acid N-hydroxysuccinimide ester) for selection and for the ELISA on streptavidin-coated plates; biotin-free for directly coated plates).
Assay [2] deals with T1, carcinoembryonic antigen (CEA), human …. Nature of the assay: ELISA; biotinylated CEA (1 ug/mL) on streptavidin-coated plates; scFv in blocking buffer (MPBS) 1 h at RT; anti-FLAG M2 and anti-mouse HRP. The note with it: one partner purified. (An ELISA detects its analyte on a solid surface through an enzyme-linked reagent.)
Assay [3] deals with T2, CEA, endogenous in human colon carcinoma LoVo cells (Homo sapiens (LoVo cells), UniProt P06731).
T2 construct: carcinoembryonic antigen (CEA, CEACAM5), endogenous in LoVo colorectal carcinoma cells; which member carries the signal on cells is not separated; also called CEA in LoVo cells; 200 kDa band of LoVo cellular extract; source: endogenous, LoVo cells (on cells) and LoVo cellular extract
T2 sequence (P06731 35-685): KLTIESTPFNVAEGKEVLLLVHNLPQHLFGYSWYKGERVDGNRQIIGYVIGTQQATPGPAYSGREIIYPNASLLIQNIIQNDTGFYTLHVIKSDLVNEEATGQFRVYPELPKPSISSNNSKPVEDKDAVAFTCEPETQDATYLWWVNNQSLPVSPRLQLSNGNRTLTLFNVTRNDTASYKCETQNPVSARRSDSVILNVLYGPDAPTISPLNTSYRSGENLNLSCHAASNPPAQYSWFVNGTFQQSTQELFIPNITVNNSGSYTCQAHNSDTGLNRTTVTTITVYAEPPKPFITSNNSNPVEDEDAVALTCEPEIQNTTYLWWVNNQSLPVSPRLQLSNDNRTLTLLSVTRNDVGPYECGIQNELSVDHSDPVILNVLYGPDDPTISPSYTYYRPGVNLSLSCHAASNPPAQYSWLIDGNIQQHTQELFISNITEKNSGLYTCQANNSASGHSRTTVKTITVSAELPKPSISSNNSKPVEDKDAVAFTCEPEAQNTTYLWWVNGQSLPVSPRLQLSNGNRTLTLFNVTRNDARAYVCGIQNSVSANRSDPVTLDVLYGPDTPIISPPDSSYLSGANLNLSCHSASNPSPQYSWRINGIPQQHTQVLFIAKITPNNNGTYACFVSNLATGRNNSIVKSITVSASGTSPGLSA
Put plainly: flow cytometry on cells; living/intact human cells; 5 ug/mL scFv in PBS 1% BSA, 1 h at RT; anti-FLAG and FITC goat anti-mouse IgG; grades by percent stained cells. The note with it: one partner purified. (Flow cytometry measures light scatter and fluorescence of single cells or particles in a stream.)

T1 sequence (P06731 35-685): as above

B1: E2 (antibody, V domains shown)
VH: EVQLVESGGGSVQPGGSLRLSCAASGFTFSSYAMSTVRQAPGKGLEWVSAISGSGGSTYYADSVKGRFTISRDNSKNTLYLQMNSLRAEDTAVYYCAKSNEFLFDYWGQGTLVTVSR
VL: SSELTQDPAVSAAWGQTVRITCRGGSLGSSRASWYQQKPGQAPVLVIYGRNNRPSGIPDRFSGSSSGNTASLAITGAQAEDEADYYCNSSYAWLPYVVFGGGTKLTVL
With B1, the binding result in assay [1] was “binds”.

B2: B3 (antibody, V domains shown)
VH: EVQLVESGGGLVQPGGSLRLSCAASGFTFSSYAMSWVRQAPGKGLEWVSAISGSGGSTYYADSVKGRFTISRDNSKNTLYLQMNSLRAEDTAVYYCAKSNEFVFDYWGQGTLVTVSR
VL: SSELTQDPAVSVALRQTVRITCQRDSLRSYYASWYQQKPGQAPVLVIYGKNNRPSGIPDRFSGSSSGNTASLTITGAQAEDEADYYCNSSYPWLPYVVFGGGTKLTVL
Consider B2, for which the binding result in assay [1] is “binds”.

B3: E5 (antibody, V domains shown)
VH: EVQLAESGGGLVQPGGSLRLSCAASGLTFSSYGMSTVRQAPGKGLEWVSAISGSGGSTYYADSVKGRFTISRDNSKNTLYLQMNSLRAEDTAVYYCAKSNEFLFDYWGQGTLVTVSR
VL: SSELTQDPAVSVASGQTVRITCQGDSLRSSYASWYQRKPGQAPVLVIYGKNNRPSGIPDRFSGSSSGSTASLTITGAQAEDEADYYCNSSYAWLPYVVFGGGTKLTVL
As to B3, the binding result in assay [1] is reported as “binds”.

B4: E3 (antibody, V domains shown)
VH: EVQLAESGGGLVRPGGSLRLSCAASGFTFSSYAMSTVRQAPGKGLEWVSAISGSGGSTYYADSVKGRFTISRDNSENTLYLQMNSLRAEDTAVYYCAKSNEFLFDYWGQGTLVTVSR
VL: SSELTQDPAVSVALGQTVRITCQGDSLRSSYASWYQQKPGQAPVLVIYGKNNRPSGIPDRFSGSSSGNTASLTITGAQAEDEADYYCNSSYAWLPYVVFGGGTKLTVL
As to B4, the binding result in assay [1] is on record as “binds”.

B5: E1 (antibody, V domains shown)
VH: EVQLAESGGGLVQPGGSLRLPCAAPGFTFSSYAMSTVRQAPGKGLEWVSAISGSGGSTYYADSVKGRFTISRDNSKNTLYLQMNSLRAEDTAVYYCAKSNEFLFDYWGQGTLVTVSR
VL: SSELTQDPAVSVALGQTVRITCRGDSLRSSYASWYQQKPGQAPVLVIYGKNNRPSGIPDRFSVSSSGNTASLTITGAQAEDEADYYCNSSYAWPPYVVFGGGTKLTVL
As to B5, in assay [1], the binding result was “binds”.

B6: B17 (antibody, V domains shown)
VH: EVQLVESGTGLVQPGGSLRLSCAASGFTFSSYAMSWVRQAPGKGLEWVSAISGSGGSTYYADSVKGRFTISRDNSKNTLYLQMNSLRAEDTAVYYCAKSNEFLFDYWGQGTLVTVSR
VL: SSELTQDPAVSVALGQTVRITCQGDSLRSYYASWYQQKPGQAPVLVIYGKNNRPSGIPDRFSGSSSGNTASLTITGAQAEDEADYYCNSSYPWLPYVVFGGGTKLTVL
Turning to B6, the binding result in assay [1] is on record as “binds”.

B7: E15 (antibody, V domains shown)
VH: EVQLVESGGGLVQPGGSLRLSCTASGFTFSRYAMSTVRQAPGKGLEWVSAISGSGGSTYYADSVKGRFTISRDNSKNTLYLQMNSLRAEDTAVYYCAKSNEFLFDYWGQGTLVTVSR
VL: SSELTQDPAVSVALGQTVRITCQGDSLRSSYASWYQQKPGQAPVLVIYGKNNRPSGIPDRFSVSSSGNTASLTITGAQAEDEADYYCNSSYAWLPYVVFGGGTKLTVL
Consider B7, for which, in assay [1], the binding result was “binds”.

B8: E13 (antibody, V domains shown)
VH: EVQLAEPGGGLVQPGGSLRLSCAASGLTFSSYAMSTIRQAPGKGLEWVSAISGSGGSTYYADSVKGRFTISRDNSENTLYLQMNSLRAEDTAVYYCAKSNEFLFDYWGQGTLVTVSR
VL: SSELTQDPAVSVALGQAVRITCQGDSLRSTYASWYQQKPGQAPVLVIYGKNNRPSGIPDRFSGSSSGNTASLTIAGAQAEDEADYYCNSSYAWLPYVVFGGGTKLTVL
For B8, the binding result in assay [1] is recorded as “binds”.

B9: E4 (antibody, V domains shown)
VH: EVQLAESGGGLVQPGGSLRLSCAASGFTFSSYGMSTVRQAPGKGLEWVSAISGSGGSTYYADSVKGRFTISRDNSKNTLYLQMNSLRAEDTAVYYCAKSNEFLFDYWGQGTLVTVSR
VL: LSELTQDPAASVALGQTVRITCQGDSLRSSYASWYQQKPGQAPVLVIYGKNNRPPGIPDRFSVSSSGNTASLTITGAQAEDEADYYCNSSYAWLPYVVFGGGTKLTVL
Take B9: the binding result in assay [1] is given as “binds”.

B10: B5 (antibody, V domains shown)
VH: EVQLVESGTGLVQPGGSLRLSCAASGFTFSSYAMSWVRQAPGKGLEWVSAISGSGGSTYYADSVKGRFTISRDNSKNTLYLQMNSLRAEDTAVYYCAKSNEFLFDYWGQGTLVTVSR
VL: SSELTQDPAVPVALRQTVRITCQGDSLRSYYASWYQQKPGQAPVLVIYGKNNRPSGIPDRFSGSSSGNTASLTITGAQAEDEADYYCNSSYPWLPYVVFGGGTKLTVL
B10: the binding result in assay [1] is on record as “binds”.

B11: E14 (antibody, V domains shown)
VH: EVQLAESGGGLVQPGGSLRLSCAASGFTFSSYAMSTVRQAPGKGLEWVSAISGSGGSTYYADSVMGRFTISRDNSKNTLYLQMNSLRAEDTAVYYCAKSNEFLFDYWGQGTLVTVSR
VL: SSELTQDPAVSVALGQTVRITCQGDSLRGSYASWHQQKPGQAPVLVIYGKNNRPSGIPDRFSVSSSGNTASLTITGAQAEDEADYYCNSSYAWLPYVVFGGGTKLTVL
For the molecule B11, the binding result in assay [1] was “binds”.

B12: human MA39 scFv (anti-CEA single-chain antibody fragment) (scFv, V domains shown)
VH: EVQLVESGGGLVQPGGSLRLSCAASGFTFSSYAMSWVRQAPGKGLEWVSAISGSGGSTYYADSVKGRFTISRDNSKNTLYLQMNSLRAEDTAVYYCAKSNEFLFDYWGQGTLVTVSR
VL: SSELTQDPAVSVALGQTVRITCQGDSLRSYYASWYQQKPGQAPVLVIYGKNNRPSGIPDRFSGSSSGNTASLTITGAQAEDEADYYCNSSYPWLPYVVFGGGTKLTVL
notes: clone from the ETH-2 synthetic human scFv library (DP47 heavy chain; DPK22 or DPL16 light chain, randomised CDR3s); the ELISA methods use soluble scFv; The methods name the host once as 'HB121'; also called scFv MA39; M39; source: E. coli HB2151, periplasmic extract, purified (Ni-NTA agarose); also culture supernatant
On to B12, for which the binding result in assay [2] and in assay [3] was “binds” in each case.

B13: E6 (antibody, V domains shown)
VH: EVQLVETGGGLVQPGGSLRLSCAASGFAFSSYGMSTVRQAPGKGLEWVSAISGSGGSTYYADSVKGRFTISRDNSKNTLYLQMNSLRAEDTAVYYCAKSNEFLFDYWGQGTLVTVSR
VL: SSELTQDPAVSVALGQTVRITCQGDSLRSSHASWYQQKPGRAPVLVIYGKNNRPSGIPARFSASSSGNTASLTITGAQAEDEADYYCNSSYAWLPYVVFGGGTKLTVL
Consider B13, for which the binding result in assay [1] is recorded as “binds”.

B14: E9 (antibody, V domains shown)
VH: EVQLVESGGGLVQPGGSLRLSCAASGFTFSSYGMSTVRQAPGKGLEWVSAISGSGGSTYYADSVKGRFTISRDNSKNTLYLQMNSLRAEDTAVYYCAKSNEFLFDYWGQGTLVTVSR
VL: SSELTQDPAVSVALGQTVRITCQGDSLRSSYASWYQQKPGQAPVLVIYGKNNRPSGIPGRFSVSSSGNTASLTITGAQAEDEADYYCNSSYAWLPYVVFGGGTKLTVL
Consider B14, for which the binding result in assay [1] is on record as “binds”.
